# Measurements published in paper PMC5569669, “Rhenium and Technetium-oxo Complexes with Thioamide Derivatives of Pyridylhydrazine Bifunctional Chelators Conjugated to the Tumour Targeting Peptides Octreotate and Cyclic-RGDfK” (Inorganic Chemistry, 2017).
# Type: in vitro ADME, human
# Procedure: Human blood samples were centrifuged with a Heraeus Labofuge 6000 centrifuge at 3000g for 10 min (Heraeus, Hanau, Germany). Radioactivity readings for serum stability studies were taken with a Capintec CRC-35R dose calibrator (Capintec, New Jersey, USA) and were measured in MBq. Centrifugation of radioactive compounds was undertaken using an Eppendorf 5415 D centrifuge (Eppendorf, Hamburg, Germany). Partition coefficient data were collected with a PerkinElmer, Wizard 1470 (PerkinElmer, Massachusetts, USA) automatic γ counter, which measured the radioactive decay of each sample in counts per minute (cpm).
# For serum stability studies, blood from a healthy person (20 mL) was centrifuged (10 min, 3000 rpm) to separate blood plasma and red blood cells. The plasma was transferred to a separate vial and the red blood cells were discarded. An aliquot of plasma (0.6 mL) was added to labeled compound, [^99mTc(HL^3(Tyr^3-Oct))2]^+ (0.15 mL), the radioactivity was monitored and the mixture was then incubated at 37 °C. […] The radioactivity of the supernatant and pellet was recorded. The supernatant (20 μL) was analyzed by analytical RP-HPLC (Column 7, System C) for UV and radioactivity analysis and the pellet were washed with acetonitrile (3 × 0.1 mL), and radioactivity levels were again recorded (radioactivity levels of the pellet were negligible).
smiles,measurement,value
"C[C@@H](O)[C@H](NC(=O)[C@@H]1CSSC[C@H](NC(=O)[C@@H](Cc2ccccc2)NC(=O)c2ccc(NNC(=S)Nc3ccccc3)nc2)C(=O)N[C@@H](Cc2ccc(O)cc2)C(=O)N[C@H](Cc2c[nH]c3ccccc23)C(=O)N[C@@H](CCCCN)C(=O)N[C@@H]([C@@H](C)O)C(=O)N1)C(=O)O (99mTc complex, metal not drawn) [[^99mTcO(HL^3(Tyr^3-Oct))2]^+]",degradation products in human plasma,< 5%
same,radioactivity levels of the pellet (precipitated serum proteins),negligible
